± gives the uncertainty stated by the source.
B1: Double-stranded RNA-binding protein Staufen homolog 1, residues 183 to 249; numbered along this chain, O95793 (parent)
chain: KSEISQVFEIALKRNLPVNFEVARESGPPHMKNFVTKVSVGEFVGEGEGKSKKISKKNAAIAVLEEL

Variants of: B1
Assay: abundance fitness (aPCA) (normalised: wild type 0, dead -1); higher = more abundant; growth selection in yeast, the domain comes from the species named
Settings: Homo sapiens

Q: Which abundance fitness does the source give for KSEISQVFEIALKRNLPVNFEVARESGPPHMKNFVTKVSVGEFVGEGEGKSAKISKKNAAIAVLEEL here?
A: -0.125 ± 0.043

Q: For KSEISQVFEIALKRNLPVNFEVARESGPPHMKNFVTKVSVGEFVGEGEGKSDKISKKNAAIAVLEEL, which abundance fitness is on record?
A: -0.587 ± 0.067

Q: For KSEISQVFEIALKRNLPVNFEVARESGPPHMKNFVTKVSVGEFVGEGEGKSHKISKKNAAIAVLEEL, which abundance fitness is on record?
A: -0.518 ± 0.084

Q: Which abundance fitness does the source give for KSEISQVFEIALKRNLPVNFEVARESGPPHMKNFVTKVSVGEFVGEGEGKSVKISKKNAAIAVLEEL here?
A: -0.243 ± 0.044

Q: Which abundance fitness does the source give for KSEISQVFEIALKRNLPVNFEVARESGPPHMKNFVTKVSVGEFVGEGEGKSRKISKKNAAIAVLEEL here?
A: -0.098 ± 0.039

Q: For KSEISQVFEIALKRNLPVNFEVARESGPPHMKNFVTKVSVGEFVGEGEGKSSKISKKNAAIAVLEEL, which abundance fitness is on record?
A: -0.416 ± 0.049

Q: For KSEISQVFEIALKRNLPVNFEVARESGPPHMKNFVTKVSVGEFVGEGEGKSYKISKKNAAIAVLEEL, which abundance fitness is on record?
A: -0.329 ± 0.078

Q: Which abundance fitness does the source give for KSEISQVFEIALKRNLPVNFEVARESGPPHMKNFVTKVSVGEFVGEGEGKSTKISKKNAAIAVLEEL here?
A: -0.52 ± 0.053

Q: With KSEISQVFEIALKRNLPVNFEVARESGPPHMKNFVTKVSVGEFVGEGEGKSPKISKKNAAIAVLEEL as the variant, how does the abundance fitness read?
A: -0.179 ± 0.052

Q: With KSEISQVFEIALKRNLPVNFEVARESGPPHMKNFVTKVSVGEFVGEGEGKSQKISKKNAAIAVLEEL as the variant, how does the abundance fitness read?
A: -0.318 ± 0.064

Q: For KSEISQVFEIALKRNLPVNFEVARESGPPHMKNFVTKVSVGEFVGEGEGKSGKISKKNAAIAVLEEL, which abundance fitness is on record?
A: -0.603 ± 0.046

Q: With KSEISQVFEIALKRNLPVNFEVARESGPPHMKNFVTKVSVGEFVGEGEGKSCKISKKNAAIAVLEEL as the variant, how does the abundance fitness read?
A: -0.432 ± 0.075

Q: With KSEISQVFEIALKRNLPVNFEVARESGPPHMKNFVTKVSVGEFVGEGEGKSMKISKKNAAIAVLEEL as the variant, how does the abundance fitness read?
A: -0.29 ± 0.058

Q: Which abundance fitness does the source give for KSEISQVFEIALKRNLPVNFEVARESGPPHMKNFVTKVSVGEFVGEGEGKSFKISKKNAAIAVLEEL here?
A: -0.481 ± 0.082

Q: With KSEISQVFEIALKRNLPVNFEVARESGPPHMKNFVTKVSVGEFVGEGEGKSIKISKKNAAIAVLEEL as the variant, how does the abundance fitness read?
A: -0.175 ± 0.074

Q: Which abundance fitness does the source give for KSEISQVFEIALKRNLPVNFEVARESGPPHMKNFVTKVSVGEFVGEGEGKSLKISKKNAAIAVLEEL here?
A: -0.228 ± 0.039

Q: With KSEISQVFEIALKRNLPVNFEVARESGPPHMKNFVTKVSVGEFVGEGEGKSNKISKKNAAIAVLEEL as the variant, how does the abundance fitness read?
A: -0.622 ± 0.088

Q: With KSEISQVFEIALKRNLPVNFEVARESGPPHMKNFVTKVSVGEFVGEGEGYSKKISKKNAAIAVLEEL as the variant, how does the abundance fitness read?
A: -0.187 ± 0.083

Q: With KSEISQVFEIALKRNLPVNFEVARESGPPHMKNFVTKVSVGEFVGEGEGKSKKSSKKNAAIAVLEEL as the variant, how does the abundance fitness read?
A: -0.066 ± 0.045

Q: For KSEISQVFEIALKRNLPVNFEVARESGPPHMKNFVTKVSVGEFVGEGEGKSKKQSKKNAAIAVLEEL, which abundance fitness is on record?
A: -0.052 ± 0.042

Q: With KSEISQVFEIALKRNLPVNFEVARESGPPHMKNFVTKVSVGEFVGEGEGKSKKVSKKNAAIAVLEEL as the variant, how does the abundance fitness read?
A: -0.075 ± 0.038

Q: With KSEISQVFEIALKRNLPVNFEVARESGPPHMKNFVTKVSVGEFVGEGEGKSKKCSKKNAAIAVLEEL as the variant, how does the abundance fitness read?
A: -0.26 ± 0.052

Q: With KSEISQVFEIALKRNLPVNFEVARESGPPHMKNFVTKVSVGEFVGEGEGKSKKMSKKNAAIAVLEEL as the variant, how does the abundance fitness read?
A: -0.051 ± 0.047

Q: With KSEISQVFEIALKRNLPVNFEVARESGPPHMKNFVTKVSVGEFVGEGEGKSKKKSKKNAAIAVLEEL as the variant, how does the abundance fitness read?
A: -0.081 ± 0.049

Q: For KSEISQVFEIALKRNLPVNFEVARESGPPHMKNFVTKVSVGEFVGEGEGKSKKHSKKNAAIAVLEEL, which abundance fitness is on record?
A: -0.221 ± 0.075

Q: Which abundance fitness does the source give for KSEISQVFEIALKRNLPVNFEVARESGPPHMKNFVTKVSVGEFVGEGEGKSKKFSKKNAAIAVLEEL here?
A: -0.661 ± 0.12

Q: With KSEISQVFEIALKRNLPVNFEVARESGPPHMKNFVTKVSVGEFVGEGEGKSKKYSKKNAAIAVLEEL as the variant, how does the abundance fitness read?
A: -0.642 ± 0.084

Q: With KSEISQVFEIALKRNLPVNFEVARESGPPHMKNFVTKVSVGEFVGEGEGKSKKPSKKNAAIAVLEEL as the variant, how does the abundance fitness read?
A: -0.724 ± 0.073

Q: Which abundance fitness does the source give for KSEISQVFEIALKRNLPVNFEVARESGPPHMKNFVTKVSVGEFVGEGEGKSKKLSKKNAAIAVLEEL here?
A: -0.017 ± 0.036

Q: With KSEISQVFEIALKRNLPVNFEVARESGPPHMKNFVTKVSVGEFVGEGEGKSKKWSKKNAAIAVLEEL as the variant, how does the abundance fitness read?
A: -0.619 ± 0.05

Q: With KSEISQVFEIALKRNLPVNFEVARESGPPHMKNFVTKVSVGEFVGEGEGKSKKESKKNAAIAVLEEL as the variant, how does the abundance fitness read?
A: 0.09 ± 0.043

Q: Which abundance fitness does the source give for KSEISQVFEIALKRNLPVNFEVARESGPPHMKNFVTKVSVGEFVGEGEGKSKKTSKKNAAIAVLEEL here?
A: -0.132 ± 0.049

Q: Which abundance fitness does the source give for KSEISQVFEIALKRNLPVNFEVARESGPPHMKNFVTKVSVGEFVGEGEGKSKKASKKNAAIAVLEEL here?
A: -0.063 ± 0.042

Q: For KSEISQVFEIALKRNLPVNFEVARESGPPHMKNFVTKVSVGEFVGEGEGKSKKDSKKNAAIAVLEEL, which abundance fitness is on record?
A: -0.04 ± 0.072

Q: With KSEISQVFEIALKRNLPVNFEVARESGPPHMKNFVTKVSVGEFVGEGEGKSKKRSKKNAAIAVLEEL as the variant, how does the abundance fitness read?
A: -0.23 ± 0.033

Q: With KSEISQVFEIALKRNLPVNFEVARESGPPHMKNFVTKVSVGEFVGEGEGKSKPISKKNAAIAVLEEL as the variant, how does the abundance fitness read?
A: -0.284 ± 0.07

Q: Which abundance fitness does the source give for KSEISQVFEIALKRNLPVNFEVARESGPPHMKNFVTKVSVGEFVGEGEGKSKDISKKNAAIAVLEEL here?
A: -0.192 ± 0.066

Q: With KSEISQVFEIALKRNLPVNFEVARESGPPHMKNFVTKVSVGEFVGEGEGKSKQISKKNAAIAVLEEL as the variant, how does the abundance fitness read?
A: -0.207 ± 0.065

Q: With KSEISQVFEIALKRNLPVNFEVARESGPPHMKNFVTKVSVGEFVGEGEGKSKAISKKNAAIAVLEEL as the variant, how does the abundance fitness read?
A: -0.129 ± 0.054

Q: With KSEISQVFEIALKRNLPVNFEVARESGPPHMKNFVTKVSVGEFVGEGEGKSKLISKKNAAIAVLEEL as the variant, how does the abundance fitness read?
A: -0.235 ± 0.048

Source: the Human Domainome abundance scans (Beltran et al. 2025)
